The data set concerns the target HA-tagged RAS.

Our source for the RAS activation values is patent US20100009361.

B1: full-length, HA-tagged wild-type SOS1 (protein)
chain: MQAQQLPYEFFSEENAPKWRGLLVPALKKVQGQVHPTLESNDDALQYVEELILQLLNMLCQAQPRSASDVEERVQKSFPHPIDKWAIADAQSAIEKRKRRNPLSLPVEKIHPLLKEVLGYKIDHQVSVYIVAVLEYISADILKLVGNYVRNIRHYEITKQDIKVAMCADKVLMDMFHQDVEDINILSLTDEEPSTSGEQTYYDLVKAFMAEIRQYIRELNLIIKVFREPFVSNSKLFSANDVENIFSRIVDIHELSVKLLGHIEDTVEMTDEGSPHPLVGSCFEDLAEELAFDPYESYARDILRPGFHDRFLSQLSKPGAALYLQSIGEGFKEAVQYVLPRLLLAPVYHCLHYFELLKQLEEKSEDQEDKECLKQAITALLNVQSGMEKICSKSLAKRRLSESACRFYSQQMKGKQLAIKKMNEIQKNIDGWEGKDIGQCCNEFIMEGTLTRVGAKHERHIFLFDGLMICCKSNHGQPRLPGASNAEYRLKEKFFMRKVQINDKDDTNEYKHAFEIILKDENSVIFSAKSAEEKNNWMAALISLQYRSTLERMLDVTMLQEEKEEQMRLPSADVYRFAEPDSEENIIFEENMQPKAGIPIIKAGTVIKLIERLTYHMYADPNFVRTFLTTYRSFCKPQELLSLIIERFEIPEPEPTEADRIAIENGDQPLSAELKRFRKEYIQPVQLRVLNVCRHWVEHHFYDFERDAYLLQRMEEFIGTVRGKAMKKWVESITKIIQRKKIARDNGPGHNITFQSSPPTVEWHISRPGHIETFDLLTLHPIEIARQLTLLESDLYRAVQPSELVGSVWTKEDKEINSPNLLKMIRHTTNLTLWFEKCIVETENLEERVAVVSRIIEILQVFQELNNFNGVLEVVSAMNSSPVYRLDHTFEQIPSRQKKILEEAHELSEDHYKKYLAKLRSINPPCVPFFGIYLTNILKTEEGNPEVLKRHGKELINFSKRRKVAEITGEIQQYQNQPYCLRVESDIKRFFENLNPMGNSMEKEFTDYLFNKSLEIEPRNPKPLPRFPKKYSYPLKSPGVRPSNPRPGTMRHPTPLQQEPRKISYSRIPESETESTASAPNSPRTPLTPPPASGASSTTDVCSVFDSDHSSPFHSSNDTVFIQVTLPHGPRSASVSSISLTKGTDEVPVPPPVPPRRRPESAPAESSPSKIMSKHLDSPPAIPPRQPTSKAYSPRYSISDRTSISDPPESPPLLPPREPVRTPDVFSSSPLHLQPPPLGKKSDHGNAFFPNSPSPFTPPPPQTPSPHGTRRHLPSPPLTQEVDLHSIAGPPVPPRQSTSQHIPKLPPKTYKREHTHPSMHRDGPPLLENAHSS
For the protein B1, the RAS activation entry is “When wild type SOS1 was expressed, RAS activation was low in serum-deprived cells, then increased rapidly after EGF stimulation and finally returned toward basal levels by 30 min”.
